Target: PA-BODIPY conjugate (Bacillus anthracis protective antigen conjugated to BODIPY FL) (Bacillus anthracis, UniProt P13423 30-764)
Sequence (P13423 30-764 limits assumed): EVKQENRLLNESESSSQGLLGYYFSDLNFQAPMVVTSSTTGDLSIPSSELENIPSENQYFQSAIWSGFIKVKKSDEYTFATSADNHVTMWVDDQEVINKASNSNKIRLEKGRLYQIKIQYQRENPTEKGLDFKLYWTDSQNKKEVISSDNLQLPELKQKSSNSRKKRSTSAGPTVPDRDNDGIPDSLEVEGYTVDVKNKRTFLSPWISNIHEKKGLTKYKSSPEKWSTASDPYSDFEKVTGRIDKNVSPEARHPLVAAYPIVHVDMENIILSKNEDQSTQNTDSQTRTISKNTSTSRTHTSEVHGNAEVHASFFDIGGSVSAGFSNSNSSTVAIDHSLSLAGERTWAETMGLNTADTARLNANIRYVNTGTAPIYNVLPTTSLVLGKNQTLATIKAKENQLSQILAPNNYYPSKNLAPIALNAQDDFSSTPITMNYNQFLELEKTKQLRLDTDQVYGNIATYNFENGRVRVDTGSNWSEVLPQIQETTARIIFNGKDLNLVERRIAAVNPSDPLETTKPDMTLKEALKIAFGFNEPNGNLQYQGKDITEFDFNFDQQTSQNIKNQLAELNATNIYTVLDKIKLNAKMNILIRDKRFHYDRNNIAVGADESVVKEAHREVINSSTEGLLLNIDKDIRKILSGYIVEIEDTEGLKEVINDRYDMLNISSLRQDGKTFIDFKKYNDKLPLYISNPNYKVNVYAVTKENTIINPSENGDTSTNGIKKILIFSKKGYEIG

B1: NlpA-[14B7 scFv] fusion anchored on the E. coli inner membrane (scFv)
scFv: CDQSSSDIQMTQTTSSLSASLGDRVTISCRASQDIRNYLNWYQQKPDGTVKLLIYYTSRLQSGVPSRFSGSGSGTDYSLTISNQEQEDIGTYFCQQGNTLPWTFGGGTKLEIKRGGGGSGGGGSGGGGSGGGGSEVQLQQSGPELVKPGASVKISCKDSGYAFSSSWMNWVKQRPGQGLEWIGRIYPGDGDTNYNGKFKGKATLTADKSSSTAYMQLSSLTSVDSAVYFCARSGLLRYAMDYWGQGTSVTVSS
  fold higher mean fluorescence intensity compared to controls: ~9 fold
